Where a chain is given by its changes, count along the chain named. Names and notes keep the numbering of the source.
B1: archaeal/eukaryotic common ancestor (AECA) Trx (protein)
chain: MSVIEINDENFDEVIKKSDKVVVVDFWAEWCGPCRMIAPIIEELAEEYAGKVVFGKVNVDENPEIAAKYGIMSIPTLLFFKNGKVVDQLVGARPKEALKERIKKYL
B2: last common ancestor of cyanobacterial and deinococcus/thermus groups (LPBCA) Trx (protein)
chain: MSVIEVTDENFEQEVLKSDKPVLVDFWAPWCGPCRMIAPIIEELAKEYEGKVKVVKVNVDENPNTAAQYGIRSIPTLLLFKNGQVVDRLVGAQPKEALKERIDKHL
B3: last eukaryotic common ancestor (LECA) Trx (protein)
chain: MVIQVTNKEEFEAILSEADKLVVVDFFATWCGPCKMIAPFFEELSEEYPDKVVFIKVDVDEVPDVAAKYGITSMPTFKFFKNGKKVDELVGANQEKLKQMILKHAP
B4: last bacterial common ancestor (LBCA) Trx (protein)
chain: MSVIEINDENFEEEVLKSDKPVLVDFWAPWCGPCRMIAPIIEELAEEYEGKVKFAKVNVDENPETAAKYGIMSIPTLLLFKNGEVVDKLVGARPKEALKERIEKHL
B5: last common ancestor of γ-proteobacteria (LGPCA) Trx (protein)
chain: MSIIHVTDDSFDQDVLKADKPVLVDFWAEWCGPCKMIAPILDEIAEEYEGKLKVAKVNIDENPETAAKYGIRGIPTLMLFKNGEVAATKVGALSKSQLKEFLDANL
B6: last common ancestor of animals and fungi (LAFCA) Trx (protein)
chain: MVIQVTNKDEFESILSEADKLVVVDFTATWCGPCKMIAPKFEELSEEYPDNVVFLKVDVDEVEDVAAEYGISAMPTFQFFKNGKKVDELTGANQEKLKAMIKKHAA
B7: last archaeal common ancestor (LACA) Trx (protein)
chain: B1 chain with I4V, E5Q, I6L, S18N, D19N, E46K, V57L, I65T, R93M
B8: wild type human Trx enzyme (protein)
chain: VKQIESKTAFQEALDAAGDKLVVVDFSATWCGPCKMIKPFFHSLSEKYSNVIFLEVDVDDCQDVASECEVKCMPTFQFFKKGQKVGEFSGANKEKLEATINELV
B9: C35S human thioredoxin mutant (hTrx^C35S) (protein)
chain: B8 chain with C34S

These molecules were tested against (I27G32C-A75C)8 polypeptide (UniProt Q8WZ42) (assay: not given).

| Molecule | rate of disulfide reduction at pH 5, 100 pN | rate of disulfide reduction at pH 5 | rate of disulfide reduction at pH 7, 50 pN |
| --- | --- | --- | --- |
| Trx from Acetobacter aceti | active at pH 5 (0.6×10^5 M^-1 s^-1 at 100 pN) |  |  |
| Trx from Sulfolobus tokodaii |  | does not show detectable activity at pH 5 | active at pH 7 (0.12×10^5 M^-1 s^-1 at 50 pN) |

What follows are molecules tested against (I27G32C-A75C)8 polypeptide, Q8WZ42 (assay: not given).

| Molecule | rate constant of disulfide bond reduction extrapolated to zero force (pH 7.2) | reduction rate constant at pH 5 extrapolated to zero force | staircases of single reduction events (AFM force-clamp) | Δx02 (Å) | Δx12 (Å) | β0 (s-^1) [s⁻¹] | γ0 [µM⁻¹ s⁻¹] | λ0 [s⁻¹] | rate of catalysis at pH 5 | reduction rates at pH 5 |
| --- | --- | --- | --- | --- | --- | --- | --- | --- | --- | --- |
| B1 | 30×10^5 M^-1 s^-1 for AECA Trx | 19×10^5 M^-1 s^-1 | All the ancestral enzymes resurrected using the methods described herein were able to trigger staircases of reduction events | 0.19 | -0.84 | 25 | 0.019 | 0.21 |  |  |
| B2 |  |  | All the ancestral enzymes resurrected using the methods described herein were able to trigger staircases of reduction events | 0.17 | -0.71 | 30 | 0.017 | 0.19 |  |  |
| B3 |  |  | All the ancestral enzymes resurrected using the methods described herein were able to trigger staircases of reduction events |  | -0.8 | 38 |  | 0.18 |  |  |
| B4 |  |  | All the ancestral enzymes resurrected using the methods described herein were able to trigger staircases of reduction events | 0.19 | -0.74 | 30 | 0.004 | 0.09 | showed a high rate of catalysis at pH 5, where extant enzymes are largely inactive | the reduction rates observed at pH 5 are strikingly similar to those measured at pH 7.2 |
| B5 |  |  | All the ancestral enzymes resurrected using the methods described herein were able to trigger staircases of reduction events | 0.17 | -0.83 | 34 | 0.012 | 0.35 |  |  |
| B6 |  |  | All the ancestral enzymes resurrected using the methods described herein were able to trigger staircases of reduction events |  | -0.74 | 37 |  | 0.06 |  |  |
| B7 | 29×10^5 M^-1 s^-1 for LACA Trx | 6.2×10^5 M^-1 s^-1 | All the ancestral enzymes resurrected using the methods described herein were able to trigger staircases of reduction events |  | -0.76 | 43 |  | 0.38 |  |  |

Same assay, conditions: not given

| Molecule | rate of reduction at pH 5, fold lower than LBCA | reoxidation of substrate disulfide bonds during refolding (step sizes in the probe pulse) |
| --- | --- | --- |
| B8 | modern E. coli and human thioredoxin show ˜20 fold lower rates at this pH | none of the refolded domains formed a disulfide bond, indicating that the wild type form of thioredoxin does not catalyze reoxidation |
| B9 |  | the step sizes during the probe pulse are now entirely composed of 11 and 14 nm steps, indicating the full reoxidation of all the disulfide bonds |

What follows are molecules tested against (I27G32C-A75C)8 polypeptide (UniProt Q8WZ42) (assay: given as k10 (k10=δ0); three-state kinetic model fitted to force-dependent disulfide reduction rates, single-molecule AFM force-clamp, pH 7.2; not a direct binding assay).

| Molecule | koff [s⁻¹] |
| --- | --- |
| B2 | 4.9 |
| B3 | 4.2 |
| B4 | 5.8 |
| B5 | 3.8 |
| B6 | 4.6 |

The molecules below were run against (I27G32C-A75C)8 polypeptide (UniProt Q8WZ42) (assay: given as α0 (k01=α0[Trx]); three-state kinetic model fitted to force-dependent disulfide reduction rates, single-molecule AFM force-clamp, pH 7.2; not a direct binding assay).

| Molecule | kon [M⁻¹ s⁻¹] |
| --- | --- |
| B2 | 470000 |
| B3 | 760000 |
| B4 | 470000 |
| B5 | 480000 |
| B6 | 810000 |

Reference: patent US20130252307A1
